In PMC10257657, “A flavin-monooxygenase catalyzing oxepinone formation and the complete biosynthesis of vibralactone” (Nature Communications, 2023) one finds Km and kcat data, which are given here for 1 protein.

Usually Km stands for the substrate concentration at which the rate is half of its maximum.

Substrate in this data set: CC(C)=CCc1cc(CO)ccc1O
In words: purified protein. Format: biochemical, Boreostereum vibrans. Conditions: NADPH 0.1 mM, 50 mM sodium phosphate pH 7.5, 28 °C, 30 min.

B1: VibO (Boreostereum vibrans) (protein)
chain: MAAVENFEGYVEPELFERPGTSLPNKLGVMPQLTWPNVLNGTNCEKPAVPNYKPPSKVDVIIIGAGPVGLTTAACLLRQGITVRILDRSPHPLPVGRADGLQPRSMEVFDLLGLGEEVYHVGIRVEHTTVYKDGKQHIFAESHQAPGNEAHYTGLHACTQTEVEHLLIRDLIRHDILVERPCTATSYTFDEEADASVTHPITVNITNEATGAEEVVTARFLVGSDGAHSMIRKSLPIEFPGVKTDLHWGIVDAVINSDFPHRWTFGTVLNSEYGGCLIIPRERNMVRLYVQLRAEPGKAFDHSKWGPEEILVILNKVFAPYTLSYAEPVDWYTILTINERVATSFTYKDRIFLAGDSCHVHSAKGAFGMNTGVMDAHNLAWKLAMLCRGIAKPSLLASYDVERRENALRAVATSARYLRFVGNCTFQAIDGSGEVDKEADELVVPPGEDKDVFYFKKFVGQVGRFLIGLDVDYAENALNKLSPAVSRARAGYRASNPRVALSRSHSGRLYHSFGHLGQFTLLVFASNMGGALNAKLHALDSYLAGPSSFYHAYGGADTFKIVVVVRATPSQADQRVKTFPFLSKAGHTVYDDQLPLSHFGGDAHALYGVSHEEGAIVVVRPDSWIGTSSTISDARSLESYFDGFLFKSTEGSY
notes: full length, N-terminal His6 tag, expressed in E. coli BL21(DE3) (pET28a(+)); domains cover residues 1-653; dimer; copurified FAD
In the case of B1, the Michaelis-Menten constant (Km) was found to be 407 ± 83 µM and the kcat is recorded as 0.111 ± 0.010 min^–1.
